The values below come from paper PMC11763261.

The chains are these.
T1: CTB5-MBP (OsHox14, HD-Zip I) (Oryza sativa (japonica; KMXBG or Towada …, UniProt Q7XI85 1-240)
T1 sequence: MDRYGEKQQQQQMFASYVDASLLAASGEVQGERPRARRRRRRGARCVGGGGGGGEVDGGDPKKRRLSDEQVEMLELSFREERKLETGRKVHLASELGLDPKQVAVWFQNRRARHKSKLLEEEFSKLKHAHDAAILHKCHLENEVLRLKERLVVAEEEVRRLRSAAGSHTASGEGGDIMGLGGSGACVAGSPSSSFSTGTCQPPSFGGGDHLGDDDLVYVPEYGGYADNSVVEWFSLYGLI

B1: OsGA2ox6 promoter probe mutant (dsDNA)
DNA 1: CGGGGATGTGCAGTTCCCCCCATTTTGTATAAGATT
DNA 2: AATCTTATACAAAATGGGGGGAACTGCACATCCCCG
B2: OsGA2ox6 promoter probe WT (dsDNA)
DNA 1: CGGGGATGTGCAGTTTAATTAATTTTGTATAAGATT
DNA 2: AATCTTATACAAAATTAATTAAACTGCACATCCCCG
B3: PYL9 promoter probe WT (AH1 motif) (dsDNA)
DNA 1: AAAATATATTCAATTATTGATTTGAAACTA
DNA 2: TAGTTTCAAATCAATAATTGAATATATTTT
B4: OsGA3ox1 promoter probe mutant (dsDNA)
DNA 1: ATAGGAAAAAAAATTGGGGGGGGCTTAAATTTTTTGAA
DNA 2: TTCAAAAAATTTAAGCCCCCCCCAATTTTTTTTCCTAT
B5: OsGA3ox1 promoter probe WT (dsDNA)
DNA 1: ATAGGAAAAAAAATTAATAATTACTTAAATTTTTTGAA
DNA 2: TTCAAAAAATTTAAGTAATTATTAATTTTTTTTCCTAT

The target in the series is T1, CTB5-MBP (OsHox14, HD-Zip I). Kind of series: EMSA.
Turning to B1, the binding result is given as “no binding”.

In the case of B2, the binding result is given as “binds”. The same measure for B3: “binds”; for B4: “no binding”. Regarding B5, the binding result is “binds”.
